Experimental data reported in publication PMC4208696 (Biophysical chemistry, 2014).
Read-outs that look alike come from different tables or passages of the source.

Legend:
Experiment in all cases: fluorescence polarisation
[1] = molecular target: T1, CaM C-domain fragment, residues 76 to 148 (CaM_(76–148)) (mammalian (no species named), UniProt P0DP23 77-149)
[2] = molecular target: T2, CaM N-domain fragment, residues 1 to 80 (CaM_(1–80)) (mammalian (no species named), UniProt P0DP23 2-81)
[3] = molecular target: T3, full-length mammalian calmodulin (CaM_(1–148)) (mammalian (no species named), UniProt P0DP23 1-149)
[4] = molecular target: T1, CaM C-domain fragment, residues 76 to …; remark: listed apart in the source
[5] = molecular target: T2, CaM N-domain fragment, residues 1 to 80 …; remark: listed apart in the source
[6] = molecular target: T3, full-length mammalian calmodulin …; remark: listed apart in the source

B1: Fl–hRyR1(1975–1999)p: hRyR1(1975–1999)p with a 5,6-carboxyfluorescein moiety at the N-terminus (peptide)
peptide: {5,6‑carboxyfluorescein}-SRYGLLIKAFSMTAAETARRTREFR-NH2
Kd [1]: 9.21 ± 0.82 µM
Kd [2]: 12.5 ± 1.95 µM
Kd [3]: 0.66 ± 0.01 µM
Kd [4]: ~650 µM
Kd [5]: ~7000 µM
Kd [6]: ~850 µM

B2: Fl–hRyR1(3614–3643)p: hRyR1(3614–3643)p with a 5,6-carboxyfluorescein moiety at the N-terminus (peptide)
peptide: {5,6‑carboxyfluorescein}-KSKKAVWHKLLSKQRRRAVVACFRMTPLYN-NH2
Kd [1]: ≤ 0.01 µM
Kd [2]: 2.5 ± 0.83 µM
Kd [3]: ≤ 0.001 µM
Kd [4]: 24.9 ± 4.27 µM
Kd [5]: ~1500 µM
Kd [6]: 6.79 ± 3.05 µM
